The record followed here is PMC12852852.

One may read the stoichiometry N as the number of molecules, sites or subunits per partner or assembly.

This assay deals with hClpX E285A (human) (UniProt O76031).

In the case of “hClpX E285A (from UniProt O76031 57-633) (enzyme)”, the stoichiometry N came to 6.
